Usually Kd stands for the constant that tells how readily two partners part at equilibrium. A low value points to a tighter complex. The koff is the rate constant with which the complex falls apart. A higher koff goes with a short-lived complex. In general, kon refers to a measure of how fast the partners come together. High values mean fast association, low ones slow association.

Holding throughout (assay): BLI
Conditions in all cases: both partners purified

Assay [1] concerns the target SARS-CoV-2 Wuhan-Hu-1 RBD (SARS-CoV-2 Wuhan-Hu-1, UniProt P0DTC2).
The next assay addresses T1, SARS-CoV-2 HV.1 NTD (SARS-CoV-2 Omicron HV.1, strain).
T1 chain: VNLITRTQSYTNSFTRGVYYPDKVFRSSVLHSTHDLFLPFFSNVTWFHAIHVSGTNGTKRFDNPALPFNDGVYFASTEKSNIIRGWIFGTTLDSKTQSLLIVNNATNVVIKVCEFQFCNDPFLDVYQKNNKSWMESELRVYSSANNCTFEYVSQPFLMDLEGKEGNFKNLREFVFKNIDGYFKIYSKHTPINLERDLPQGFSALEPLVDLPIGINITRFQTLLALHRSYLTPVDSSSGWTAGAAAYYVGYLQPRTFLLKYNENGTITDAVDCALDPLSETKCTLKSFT

The target of assay [2] is SARS-CoV-2 Wuhan-Hu-1 NTD (SARS-CoV-2 Wuhan-Hu-1, UniProt P0DTC2).
A further assay deals with SARS-CoV-2 RBD protein (SARS-CoV-2 Wuhan-Hu-1, UniProt P0DTC2).
Assay [3] deals with SARS-CoV-2 RBD-SD1 protein (SARS-CoV-2, Wuhan-Hu-1 lineage (GenBank …, UniProt A0A679G9E9)).
Assay [4] has as its target SARS-CoV-2 Wuhan-Hu-1 NTD protein (SARS-CoV-2 Wuhan-Hu-1, UniProt P0DTC2).

B1: C952 IgG (antibody, V domains shown)
VH: EVQLVQSGAEVKKPGESLTISCKDSGNSFTIYWIGWVRQMPGKGLEWMGMIYPGDSGTRYSPSFEGQVTISADESINTAYLQWRSLKASDTAMYYCVRGIAVDWYFDLWGRGTLVTVSS
VL: QSVLTQPPSVSGAPGQRVTISCTGSSSNIGAGFDVHWYQQLPGTAPKLLIYGNNNRPSGVPDRFSGSKSATSASLAITGLQAEDEADYYCQSSDSSLSGLYVFGTGTNVIVL
notes: copies: 2 + 2
Regarding B1, in assay [1], the Kd came to 6.35 nM, the koff was found to be 0.00176 s⁻¹ and the kon is 278000 M⁻¹ s⁻¹.

B2: C1596 IgG (antibody, V domains shown)
VH: QVQLVQSGAEVKKPGSSVKVSCKASGGTFINYAVTWVRQAPGQGLEWMGGIIPILGIPNYAQKFQGRVTITADKSTSTAYMELSSLRSEDTAVYYCARVPQAGAAQGHYYYYYGMDVWGQGTTVTVSS
VL: not shown
notes: copies: 2 + 2
Consider B2, for which the Kd amounted to 553 nM with SARS-CoV-2 HV.1 NTD and 125 nM in assay [2].

B3: C1596 Fab (Fab, V domains shown)
VH: B2 VH
VL: not shown
As for B3, the binding result (with SARS-CoV-2 RBD protein; in assay [3]) was “no binding” each time. Binding in assay [4] was characterised by a dissociation constant (Kd) of 160 nM.

B4: C1533 IgG (antibody, V domains shown)
VH: QVQLVQSGAEVKKPGSSVKVSCKTSGVIFSRNAFSWVRQAPGQGLEWMGRIIPFLDVTNSAQEFQGRVTLNADKSTSTVYMELSSLRSEDTAIYYCARHNGDPYDFWSGYNTWAGGLDVWGQGTTVTVSS
VL: QSVLTQPPSASGTPGQRVTISCSGSGSNIGSNAVNWYQQLPGTAPKLLIYNQNQRPSGVPDRFSGSKSGTSASLAIGGLQSEDEADYYCATWDDNLSGLVFGGGTKLTVL
notes: copies: 2 + 2
With B4, in assay [2], binding was put at a Kd of 17.1 nM, the koff amounted to 0.000547 s⁻¹ and the kon was 32000 M⁻¹ s⁻¹.

B5: C1520 IgG (antibody, V domains shown)
VH: EVQLVESGGGLVQPGGSLRLACVASGFTFSIYEMNWVRQAPGKGLEWVSYITTSGHARYNADSVKGRFTISRDNSKNSFYLQMNSLRAEDTAIYYCARPQYHYYDTSTYHSYGFDIWGQGTMVTVSS
VL: QLVLTQSPSASASLGASVNLTCTLSSGHNSYAIAWHQQQPEKGPRYLMSLNSDGSHTKGDGIPDRFSGSSSGAERFLTISSLQSEDEADYYCQTWDTGIRVFGGGTRLTVL
notes: copies: 2 + 2
For B5, in assay [2], binding was characterised by a dissociation constant (Kd) of 24.8 nM, the koff came out at 0.000393 s⁻¹ and the kon is 15900 M⁻¹ s⁻¹.

Source of the values: article doi:10.1101/2024.05.05.592584 (bioRxiv, 2024).
